# Experimental data reported in paper PMC4117790, “HRAS is silenced by two neighboring G-quadruplexes and activated by MAZ, a zinc-finger transcription factor with DNA unfolding property”.
# B1: hras-2 quadruplex (structured_DNA)
# DNA: CGGGGCGGGGCGGGGGCGGGGGCG
# B2: hras-1 quadruplex (structured_DNA)
# DNA: TCGGGTTGCGGGCGCAGGGCACGGGCG
# How the values were obtained:
# MAZ-GST [1] = target: T1, MAZ-GST (UniProt P56270 1-477); assay: double-filter binding; 100 mM KCl, 50 uM Zn acetate; Hill n = 1.4 ± 0.2; EMSA/filter: 20 mM Tris-HCl pH 8, 8% glycerol, 100 uM MgCl2, 50 uM Zn acetate, 1 mM DTT, 2.5 ng/ul poly dIdC, 1 mM Na3VO4, 5 mM NaF, KCl as stated (100 mM for filter binding); EMSA gel 20 C, filter 4 C 30 min; FRET: 50 mM Tris-HCl pH 7.4, 50 uM Zn acetate, 50 mM KCl, 37 C; conditions: protein: recombinant; tags: GST; label: 32P; parallel intramolecular G4
# T1 sequence: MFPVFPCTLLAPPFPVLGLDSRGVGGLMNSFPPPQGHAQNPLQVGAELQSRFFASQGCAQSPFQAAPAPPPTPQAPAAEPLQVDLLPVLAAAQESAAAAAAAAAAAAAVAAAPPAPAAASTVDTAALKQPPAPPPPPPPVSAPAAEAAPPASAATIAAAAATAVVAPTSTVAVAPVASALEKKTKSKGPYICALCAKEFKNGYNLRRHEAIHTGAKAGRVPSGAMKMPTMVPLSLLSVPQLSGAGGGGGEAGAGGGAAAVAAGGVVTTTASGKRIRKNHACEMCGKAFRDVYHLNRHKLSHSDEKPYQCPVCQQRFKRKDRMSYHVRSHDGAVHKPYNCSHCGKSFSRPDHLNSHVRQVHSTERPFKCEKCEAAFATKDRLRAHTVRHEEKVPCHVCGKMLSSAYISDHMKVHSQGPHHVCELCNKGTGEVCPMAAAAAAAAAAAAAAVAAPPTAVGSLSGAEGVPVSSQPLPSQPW
# MAZ-GST [2] = target: T1, MAZ-GST; assay: double-filter binding; 100 mM KCl, 50 uM Zn acetate; Hill n = 1.6 ± 0.3; EMSA/filter: 20 mM Tris-HCl pH 8, 8% glycerol, 100 uM MgCl2, 50 uM Zn acetate, 1 mM DTT, 2.5 ng/ul poly dIdC, 1 mM Na3VO4, 5 mM NaF, KCl as stated (100 mM for filter binding); EMSA gel 20 C, filter 4 C 30 min; FRET: 50 mM Tris-HCl pH 7.4, 50 uM Zn acetate, 50 mM KCl, 37 C; conditions: protein: recombinant; tags: GST; label: 32P; antiparallel intramolecular G4
Binder,Kd (MAZ-GST [1]),Kd (MAZ-GST [2])
B1,0.207 ± 0.012 µM,
B2,,0.504 ± 0.084 µM
